Test results taken from patent US20240218057A1 (ROCKEFELLER UNIVERSITY, published 2024).
Where a chain is given by its changes, count along the chain named.

B1: C1030 (antibody, V domains shown)
VH: EVQLVESGGGLVQPGGSLRLSCEASGVIVSSNYMNWVRQAPGKGPEWVSVLYAGGSTFYADSVKGRFTISRDDSKNTLFLQMNNLRAEDTAVYFCARDLIAFGMDVWGQGTTVTVSS
VL: DIQLTQSPSFLSASVGDRVTITCRASQGINSDLAWYQQKPGKAPKLLIYGASTLQSGVPSRFSGSGSGTEFSLTVSSLQPEDFATYYCQQLNSYRRFGGGTKVEIK
B2: C910 (antibody, V domains shown)
VH: QVQLVQSGAAVKKPGASVKVSCKASGYTFTSYDINWVRQAPGQGLEWMGWMNPNSGNTGFAQRFQGRATLSRDTSITTAYMELTTLRSEDTAVYYCARGRANYNSKFLLDNWGQGTLVTVSS
VL: QSALTQPASVSGSPGQSITISCTGTSSDVGSYNLVSWYQQHPGTAPKLMIYEGSKRPSGVSDRFSGYKSGNTASLTISGLQADDEADYYCCSFAGSTTRYVFGTGTRVTVL
B3: C1067 (antibody, V domains shown)
VH: QVQLVQSGAEVKKPGASVKVSCKASRDTFTTHYIHWVRQAPGQGLEWMGIINPSGGSISYAQKFQGRVTMTRDTSTSTVYMELSSLRSEDTAVYYCARGGIVPHLSNWFDPWGQGTLVTVSS
VL: EIVLTQSPGTLSLSPGERATLSCRASQSVSSSYLAWYQQKPGQAPRLLIYGASSRATGIPDRFTGSGSGTDFTLTISRLEPEDFAVYYCQQYGRSSGFTFGPGTKVDIK
B4: C1065 (antibody, V domains shown)
VH: EVQLVESGGGLIQPGGSLRLSCAASGFTVSRNYMSWVRQAPGKGLEWVSVIYSGGSTFYADSVKGRFTISRDNSKNTLYLQMNSLRAEDTAVYYCARGLPTGEGWNYFDYWGQGTLVTVSS
VL: QSALTQPASVSGSPGQSITISCTGTSSDIGGYHYVSWYQQHPGKAPKLMIYDVSNRPSGISNRFSGSKSGNTASLTISGLQAEDEADYYCSSYASSSVIFGGGTKLTVL
B5: C906 (antibody, V domains shown)
VH: EVQLVESGGGLIKPGRSLRLSCTASGFTFGDYAMTWFRQAPGKGLEWVGFIRSKAYGGTTGYAASVKYRFTISRDDSKSIVYLQMDSLKTEDTAVYYCTRWDGWSQHDYWGQGTLVTVSS
VL: DIVMTQSPLSLSVTPGEPASISCRSSQSLLHSNGINYFDWYLQKPGQSPQLLIYLGSNRASGVPDRFSGSGSGTDFTLKISRVEAEDVGVYYCMQVLQIPYTFGQGTKLEI
B6: C1063 (antibody, V domains shown)
VH: EVQLVQSGAEVKKPGESLKISCKGYGNSFNNYWIAWVRQMPVKGLEWMGVINPGDSDTRYSPSFQGQVTISVDKSISTAYLQWSSLKASDTAMYYCARTWSPAAVAFFDSWGQGTLVTVS
VL: NFMLTQPHSVSESPGKTVTISCTRSSDSIGSNYVQWYQQRPGSSPTIVIYEDSQRPSGVPHRFSGSFDSSSNSASLTISGLKTEDEADYYCQSWDSGNLVFGGGTKLTVL
B7: C1060 (antibody, V domains shown)
VH: EVQLVESGGDLVQPGGSLRLSCAASEIIVSRNYMNWVRQAPGKGLEWVSIIYSGGSTFYGDSVKGRFTISRDSSKNTLYLQMHGLRVEDTAIYYCARSYGDYYIDYWGQGTLVTVSS
VL: DIQMTQSPSSVSASVGDRVTITCRTSQSISTSLAWYQQKPGKAPKLLIYAASSLQRGVPSRFSGTGSGTDFTLTISSLQPEDFATYYCQQSSSSPPLFTFGPGTKVDIK
B8: C904 (antibody, V domains shown)
VH: QVQLQQWGAGLLKPSETLSLTCAVNGGSLSLYYWSWIRQSPGKGLEWIGEINHFGGSDYKPSLKSRVSISVDTSTNQFSLKLSSVTAADTAVYYCARKPLLHSNISPGAFDIWGQGTMVTVSS
VL: EIVLTQSPGTLSLSPGERATLSCRASQSVAGSYLAWYQQKPGQAPRLLIYGASSRATGVPDRISGSGSGTDFTLTISRLEPEDFAVYYCQQYTNTPRTFGGGTKVEI
B9: C905 (antibody, V domains shown)
VH: QVQLQESGPGLVTPSQTLSLTCSVSGGSIHSRDFYWGWIRQHPGKGLEWIGHIYYTGNTYYNPSLKSRVTISADTSKNQFSLKLSSVTAADTAVYYCARATVVITLHWFDPWGQGTLVTVSS
VL: NFMLTQPHSVSESPGKTVTISCTGSGGSIASNYVQWYQQRPGSAPTTVIYEDNERPSGVPDRFSGSIDSSSNSASLTISGVKTEDEADYFCQSYDVGNPVIFGGGTKLTVL
B10: C1043 (antibody, V domains shown)
VH: EVQLVESGGGLVQPGRSLRLSCAASGFIFDNYAMHWVRQAPGKGLEWVSGISWNSDSIGYADSVKGRFTISRDNAKNSLYLQMSSLRAEDTALYYCAKDLLGNYYYYTLDVWGQGTTVTVSS
VL: QSALTQPASVSGSPGQSITISCTGTSSDIGGNNYVSWYQQHPGKAPRLMIFDVSYRPSGVSNRFSGSKSGNTASLTISGLQAEDEADYYCISYTTSSTLGVFGGGTKLTVL
B11: C903 (antibody, V domains shown)
VH: EVQLVESGGGLIQPGGSLRLSCAASGFIVSRNYMSWVRQAPGKGLEWVSIIYSGGSTFYADSVKGRFTISRDNSKNTVYLQMNSLRAEDTAVYYCARDYGDFYFDYWGQGTLVTVSS
VL: EIVLTQSPGTLSLSPGERATLSCRASQSVSSSYLAWYQQKPGQAPRLLIFDVSSRATGIPDRFSGSGSGTDFTLTISRLEPEDFAVYYCQQYGSSPRTFGQGTKVEIK
B12: C908 (antibody, V domains shown)
VH: EVQLVQSGAEVKKPGESLKISCKASGYSFTIYWIGWVRQMPGKGLEWMGIIYPGESETRYSPSFQGQVTISADKSISTAYLQWRSLKASDTAMYYCARGGPPGGVKLELTDYWGQGTLVTVSS
VL: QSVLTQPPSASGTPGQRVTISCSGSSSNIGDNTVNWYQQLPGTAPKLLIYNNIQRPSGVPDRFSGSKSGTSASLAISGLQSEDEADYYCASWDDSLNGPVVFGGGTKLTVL
B13: C1068 (antibody, V domains shown)
VH: QVQLVESGGGVVQPGRSLRLSCAASGFTFSTFAMHWVRQAPGKGLEWVAVTSYDGSNKYYADSVKGRFTISRDNSKNTLYLQMNSLRAEDTAVYYCARGLLWFGESEYFQHWGQGTLVTVSS
VL: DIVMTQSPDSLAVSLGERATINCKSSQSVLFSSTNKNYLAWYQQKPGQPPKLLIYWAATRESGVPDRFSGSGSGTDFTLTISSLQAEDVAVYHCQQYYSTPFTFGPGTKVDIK
B14: C907 (antibody, V domains shown)
VH: QVQLQESGPGLVKPSETLSLTCTVSGGSITSYYWTWIRQSPGKGLEWIGYIYYIGSTNYNPSLKSRLTISLATSKNQFSLRLNSVTAADTAVYYCASYYNDTSGYSYGLDVWGQGTTVTVSS
VL: DIQMTQSPSSLSAFVGDRVTITCRAGQSISSYLHWYQQKPGKAPKLLIYATSTLQSGVPSRFSGRGSGTDFTLTISGLQPEDFATYYCQQSYSTPQTFGQGTKVEIK
B15: C1058 (antibody, V domains shown)
VH: EVQLVESGGGLVQPGGSLRLSCAASGIIVSSNYMNWVRQVPGKGLEWVSVLYSGGSTFYADSVRGRFTISRDNSKNTLFLQMNSLRPEDTAVYYCARDFREGAFDIWGQGTMVTV
VL: DIQLTQSPSFLSASVGDRVTITCRASQGISSYLAWYQQKPGKAPNLLIYAASTLQSGVPSRFSGSGSGTDFTLTISSLQPEDFATYYCQQLNSYSPLFGQGTRLEIK
B16: C1059 (antibody, V domains shown)
VH: EVQLVESGGGLVQPGGSLRLSCAASGVTVSYNYMHWVRQAPGKGLEWVSVFFPGGSIFYADSVKGRFSISRDNSHNTLYLQMNNLRPEDTAVYYCARDFREGAIDLWGQGTMVTVSS
VL: B15 VL with G16E, N45K, A50G, D70E, F83S, S95P
B17: C1061 (antibody, V domains shown)
VH: EVQLVESGGGLVQPGGSLRLSCAASGFTFSRYDMHWVRQGTGKGLEWVSAIGTSGDTYYPDSVKGRFTISRENAKNSLYLQMNSLRAGDTAVYYCARGGLQTTTWLFDYWGQGTLVTVSS
VL: DIQMTQSPSSLSASVGDRVTITCRASQSISRYLNWYQQKPGKAPKLLIYAASSLQSGVPSRFSGSGAGTDFTLTISSLQPEDFAIYYCQQSYSNPPITFGQGTRLEIK
B18: C1062 (antibody, V domains shown)
VH: B17 VH with R31N, G40T, S54A, D61G, I69M, Y109N
VL: B17 VL with S28T, A67S, I85T, S93T, N94M
B19: C1040 (antibody, V domains shown)
VH: QVQLVESGGGVVQPGRSLRLSCAASGFSFINYNMHWVRQAPGKGLEWVAVIWYDGSNKYYADSVKGRFTISRDNSKNTLYLQMNSLRVEDTAVYYCARDPAITEAEIDYWGQGTLVTVSS
VL: DVVMTQSPLSLPVTLGQAASISCRSSQSLVHSDGNTYLNWFQQRPGQSPRRLIYRVSNRDSGVPDRFSASGSGTDFTLKISRVEAEDVGVYYCMQGTHWPWTFGQGTKVEIK
B20: C909 (antibody, V domains shown)
VH: QVQLVQSGAEVKKPGASVKVSCRASGYTFPNYDLNWVRQATGQGLEWMGWMNPNSGNTGYAQKFQGRITMTRITSISTAYMELSSLRSEDTAVYYCARGRANWNSNFLLDSWGQGTLVTVSS
VL: QSALTQPASVSGSPGQSITISCTGTSSDVGGYNLVSWYQQYPGNVPKLMIYEDAKRPSGVSNRFSGSKSANTASLTISGLQAEDEADYYCCSYAGSSTRYVFGTGTKVTVL
B21: C1052 (antibody, V domains shown)
VH: QVQLVQSGAEVKKPGASVKVSCKVSGYTLSELSMHWVRQAPGEGLEWLGGFDPEDGETINAQKFQGRVTMTEDRSTDTAYMELSSLRSEDTAVYYCATRGRYCSSGNCYYHHWGQGTLVTVSS
VL: DIQMTQSPSTLSASVGDRVIITCRASQNIHNWLAWYQQKPGKAPKLLIYKASSLESGVPSRFSGSGSGTEFTLTISSLQPDDFATYFCQQYHSYSWTFGQGTKVEIK
B22: C1057 (antibody, V domains shown)
VH: QVQLVQSGAEVKKPGSSVKVSCKASGGTFTTYIISWVRQAPGQGLEWMGGISPMLGTANYAQKFQGGVTITADESTTTAYMEMSGLRSEDTAVYYCARAHMYCSDGSCYRQSGYFDSWGQGTLVTVSS
VL: QSALTQPRSVSGSPGQSVTITCTGTSSNVGGYKYVSWFQQHPGKAPKFLIYDVSERSSGVPDRFSGSKSGNTASLTISGLQAEDEADYYCCSYAGKYTVVFGGGTRLTV
B23: C1066 (antibody, V domains shown)
VH: EVQLVESGGGLVQPGRSLRLSCAASGFMFDDYAMHWVRQAPGKGLEWVSGINWSSADIGYVDSVKGRFTISRDNAKNSLYLQMNSLRTEDTAFYYCAKGWFGELLGGSDSWGQGTLVTVSS
VL: QLVLTQSSSASASLGSSVKLTCTLNSGHSSYIIAWHQQQPGKAPRYLMKLEGSGSYNKGSGVPDRFSGSSSGADRYLTISNLQFEDEADYYCATWDSNTQVFGGGTKLTVL

Biological target: T1, SARS-COV-2 RBD (SARS-COV-2, UniProt P0DTC2 319-539)
T1 construct: also called WT RBD
Test: ELISA, RBD coated on plate

Binder	EC50 [ng/mL]
B1	2.78
B2	2.47
B3	2.93
B4	3.52
B5	1.07
B6	3.04
B7	2.67
B8	3.31
B9	3.06
B10	2.77
B11	2.54
B12	1.27
B13	2.48
B14	3.71
B15	2.13
B16	2.17
B17	2.26
B18	2.61
B19	2.08
B20	3.24
B21	2.64
B22	2.17
B23	3.01
